Measured values as given in article PMC9402538, “Rational design of a sensitivity-enhanced tracer for discovering efficient APC–Asef inhibitors” (Nature Communications, 2022).
Where a chain is given by its changes, count along the chain named. Names and notes keep the numbering of the source. Primed or numbered codes have the meaning given here. [ ]: non-standard residue; d: D form. The star is where a group is joined. FITC = O=C1OC2(c3ccc(O)cc3Oc3cc(O)ccc32)c2ccc(NC(=S)*)cc21; Phe(4-tBu) = CC(C)(C)c1ccc(C[C@H](N)C(=O)O)cc1; Bpa = N[C@@H](Cc1ccc(C(=O)c2ccccc2)cc1)C(=O)O; Ala(cPent) = N[C@@H](CC1CCCC1)C(=O)O; FITC′ = fluorescein isothiocyanate; hLeu = CC(C)CC[C@H](N)C(=O)O; 2Furoyl = O=C(c1ccco1)*; Cbz = O=C(OCc1ccccc1)*; Bz = O=C(c1ccccc1)*

T1: APC (303-739) (UniProt P25054 303-739)
T1 construct: adenomatous polyposis coli (APC), residues 303-739; pET28a construct; also called APC WT; adenomatous polyposis coli; source: E. coli BL21 (DE3), purified (Ni-NTA)
T1 sequence (looked up): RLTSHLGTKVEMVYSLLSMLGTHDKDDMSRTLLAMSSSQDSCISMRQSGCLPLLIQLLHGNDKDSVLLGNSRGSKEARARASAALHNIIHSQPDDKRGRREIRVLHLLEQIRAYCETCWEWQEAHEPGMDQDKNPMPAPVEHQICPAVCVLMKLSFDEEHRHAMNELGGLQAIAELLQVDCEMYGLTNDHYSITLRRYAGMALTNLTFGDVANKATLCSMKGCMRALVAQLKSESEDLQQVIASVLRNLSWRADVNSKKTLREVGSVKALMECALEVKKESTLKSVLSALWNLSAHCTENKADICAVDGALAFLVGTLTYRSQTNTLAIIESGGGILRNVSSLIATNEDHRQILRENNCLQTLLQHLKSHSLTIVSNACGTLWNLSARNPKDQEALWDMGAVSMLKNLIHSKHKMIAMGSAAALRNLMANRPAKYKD

T2: APC (303–739) (UniProt P25054 303-739)
T2 construct: adenomatous polyposis coli (APC), residues 303–739; The methods name this construct for FP and SPR; the ITC methods say only 'APC protein'; Plasmid was a gift (Dr. Geng Wu); pET28a; also called APC WT; adenomatous polyposis coli; source: E. coli BL21 (DE3), purified (Ni-NTA)
T2 sequence (looked up): T1 sequence (looked up)

B1: MAI-453 (peptide)
chain: {benzofuran‑2‑carbonyl}-AGESLYE-NH2
B2: MAI-461 (peptide)
chain: Bz-AGES[Ala(cPent)]YE-NH2
SMILES: C[C@H](NC(=O)c1ccccc1)C(=O)NCC(=O)N[C@@H](CCC(=O)O)C(=O)N[C@@H](CO)C(=O)N[C@@H](CC1CCCC1)C(=O)N[C@@H](Cc1ccc(O)cc1)C(=O)N[C@@H](CCC(=O)O)C(N)=O
B3: MAI-464 (peptide)
chain: {pyrimidine‑4‑carbonyl}-AGESLYE-NH2
B4: MAI-467 (peptide)
chain: Bz-AGESLYE-NH2
B5: MAI-460 (peptide)
chain: {oxazole‑5‑carbonyl}-AGESLYE-NH2
B6: MAI-465 (peptide)
chain: Bz-AGESLY[dE]-NH2
B7: MAI-457 (peptide)
chain: Bz-AGESLY[Bpa]-NH2
SMILES: CC(C)C[C@H](NC(=O)[C@H](CO)NC(=O)[C@H](CCC(=O)O)NC(=O)CNC(=O)[C@H](C)NC(=O)c1ccccc1)C(=O)N[C@@H](Cc1ccc(O)cc1)C(=O)N[C@@H](Cc1ccc(C(=O)c2ccccc2)cc1)C(N)=O
B8: MAI-451 (peptide)
chain: {morpholine‑4‑carbonyl}-AGESLYE-NH2
B9: MAI-454 (peptide)
chain: {furan‑2‑carbonyl}-AGESLY[Bpa]-NH2
B10: MAI-456 (peptide)
chain: {2‑(methylthio)pyrimidine‑4‑carbonyl}-AGESLYE-NH2
B11: MAI-455 (peptide)
chain: {oxazole‑2‑carbonyl}-AGESLYE-NH2
B12: MAI-459 (peptide)
chain: {2‑chloropyrimidine‑4‑carbonyl}-AGESLYE-NH2
B13: MAI-426 (peptide)
chain: Cbz-AGES[hLeu]YE-NH2
B14: MAI-466 (peptide)
chain: 2Furoyl-AGESLY[Phe(4-tBu)]-NH2
SMILES: CC(C)C[C@H](NC(=O)[C@H](CO)NC(=O)[C@H](CCC(=O)O)NC(=O)CNC(=O)[C@H](C)NC(=O)c1ccco1)C(=O)N[C@@H](Cc1ccc(O)cc1)C(=O)N[C@@H](Cc1ccc(C(C)(C)C)cc1)C(N)=O
B15: tracer 7 (Z–AGESLYEK[FITC]–NH2) (peptide)
peptide: Cbz-AGESLYEK(FITC)-NH2
notes: tracer 6 with a shortened linker; source: synthetic peptide, bought: Changzhou Kanglong Biotech Ltd
B16: tracer 1 (Ac–GGGGEQLAINELISDGK[FITC]–NH2) (peptide)
peptide: Ac-GGGGEQLAINELISDGK(FITC)-NH2
notes: stretch of Asef (Rho guanine nucleotide exchange factor 4); lysine that carries FITC; source: synthetic peptide, bought: Changzhou Kanglong Biotech Ltd
B17: tracer 2 (Ac–GGAGEALAINELISDGK[FITC]–NH2) (peptide)
peptide: Ac-GGAGEALAINELISDGK(FITC′)-NH2
notes: designed from tracer 1 (Asef stretch) by changing residues of the hot spot GGEQLAI; source: synthetic peptide, bought: Changzhou Kanglong Biotech Ltd
B18: tracer 6 (Z–AGESLYENELISDGK[FITC]–NH2) (peptide)
peptide: Cbz-AGESLYENELISDGK(FITC′)-NH2
notes: tracer 3 with its first two residues GG replaced by a benzyloxycarbonyl (Z) group; source: synthetic peptide, bought: Changzhou Kanglong Biotech Ltd
B19: tracer 3 (Ac–GGAGESLYENELISDGK[FITC]–NH2) (peptide)
peptide: Ac-GGAGESLYENELISDGK(FITC′)-NH2
notes: as for B17
B20: tracer 4 (Ac–YGAGESLYENELISDGK[FITC]–NH2) (peptide)
peptide: Ac-YGAGESLYENELISDGK(FITC′)-NH2
notes: tracer 3 with its first residue replaced; source: synthetic peptide, bought: Changzhou Kanglong Biotech Ltd
B21: tracer 5 (Ac–EGAGESLYENELISDGK[FITC]–NH2) (peptide)
peptide: Ac-EGAGESLYENELISDGK(FITC′)-NH2
notes: as for B20
B22: tracer 11 (peptide)
peptide: Cbz-AGESLYEGGGGGGGK(FITC′)-NH2
notes: source: synthetic peptide (general procedure B; FITC-labeled tracer peptides obtained from Changzhou Kanglong Biotech)
B23: tracer 13 (peptide)
peptide: Cbz-AGESLYEGGGK(FITC′)-NH2
notes: as for B22
B24: tracer 12 (peptide)
peptide: Cbz-AGESLYEGGGGGK(FITC′)-NH2
notes: as for B22
B25: tracer 8 (peptide)
peptide: Cbz-AGESLYENELISK(FITC′)-NH2
notes: as for B22
B26: tracer 9 (peptide)
peptide: Cbz-AGESLYENELK(FITC′)-NH2
notes: as for B22
B27: tracer 10 (peptide)
peptide: Cbz-AGESLYENK(FITC′)-NH2
notes: as for B22
B28: tracer 14 (peptide)
peptide: Cbz-AGESLYEGK(FITC′)-NH2
notes: as for B22
B29: tracer 7 (peptide)
peptide: Cbz-AGESLYEK(FITC)-NH2
notes: designed from the Asef hot spot 181-187; the systematic name on D1:p12 gives (R) at the lysine carbon; source: synthetic peptide (general procedure B; FITC-labeled tracer peptides obtained from Changzhou Kanglong Biotech)
B30: APC W593A, N641A (domain or fragment)
chain: T1 sequence (looked up) with W291A, N339A

Target: T1, APC (303-739)
Test: fluorescence polarisation; competition with tracer 7: 25 nM APC (303-739), serial dilution of peptide, 20 nM tracer 7; 50 mM HEPES pH 7.5, 300 mM NaCl, 1 mM EDTA, 1 mM DTT; room temperature
Conditions: both partners purified

Binder | IC50 [nM]
B1 | 260 ± 10
B2 | 80 ± 3
B3 | 220 ± 10
B4 | 320 ± 7
B5 | 550 ± 9
B6 | 1000 ± 30
B7 | 92 ± 3
B8 | 270 ± 5
B9 | 280 ± 10
B10 | 990 ± 60
B11 | 860 ± 30
B12 | 840 ± 30
B13 | 1200 ± 60
B14 | 940 ± 30

Target: T2, APC (303–739)
Test: fluorescence polarisation; direct binding: tracer fixed at 20 nM, a range of concentrations of APC (303–739), read after 1.5 h; EC50 by nonlinear regression
Conditions: both partners purified

Binder | EC50 [nM]
B15 | 16
B16 | 540
B17 | 180
B18 | 40
B19 | 68
B20 | 48
B21 | 46

Target: T2, APC (303–739)
Test: ITC; MicroCal ITC200, 30 °C; 50 mM HEPES pH 7.5, 300 mM NaCl, 1 mM EDTA; APC in the cell at 10–20 μM, peptide injected at 100–200 μM; single-site model
Conditions: both partners purified

Binder | Kd [nM]
B15 | 78
B16 | 580

Target: T1, APC (303-739)
Test: fluorescence polarisation; competition with tracer 1: APC (303-739) 1.0 μM and tracer 1 20 nM (Table 2), serial dilution of peptide
Conditions: both partners purified

Binder | IC50 [nM]
B1 | 460 ± 140
B2 | 630 ± 200
B3 | 740 ± 160
B4 | 820 ± 300
B5 | 620 ± 190
B6 | 750 ± 150
B7 | 590 ± 200
B8 | 390 ± 120
B9 | 480 ± 150
B10 | 570 ± 120
B11 | 530 ± 120
B12 | 600 ± 120
B13 | 840 ± 190
B14 | 810 ± 200

Target: T1, APC (303-739)
Test: fluorescence polarisation; direct binding: tracer fixed at 20 nM, range of concentrations of APC (303-739), read after 1.5 h; EC50 by nonlinear regression
Conditions: both partners purified

Binder | EC50 [nM]
B22 | 53
B23 | 48
B24 | 51
B25 | 41
B26 | 47
B27 | 52
B28 | 50

Target: T1, APC (303-739)
Test: ITC; APC protein in the cell at 10-20 μM, peptide injected at 100-200 μM; 50 mM HEPES pH 7.5, 300 mM NaCl, 1 mM EDTA; 30 °C; single-site model
Conditions: both partners purified

Binder | stoichiometry N
B29 | 1.6

Target: T3, MAI-516 (N-terminal 4-methoxy-phenyl group (R^1))
T3 construct: peptidomimetic; the text names its residues A181, G182, E183, S184, L185 and Y186 (Asef numbering); source: synthetic peptide (Supplementary Methods)
Test: ITC; MicroCal ITC200, 30 °C; 50 mM HEPES pH 7.5, 300 mM NaCl, 1 mM EDTA; APC in the cell at 10–20 μM, peptide injected at 100–200 μM; single-site model
Conditions: both partners purified

Binder | Kd [nM]
B30 | 860
